Source: patent publication US20130288372A1 (Bristol-Myers Squibb, published 2013)
Where a chain is given by its changes, count along the chain named.

B1: Anti-IL-23 Adnectin 1866F10 (designed binder)
chain: MGVSDVPRDLEVVAATPTSLLISWDHDYPYRRYYRITYGETGGNSPVQEFTVPRNINTATISGLKPGVDYTITVYAVTSTLKYDIQYSPISINYRTEIDKPSQHHHHHH
B2: Anti-IL-23 Adnectin 1866D11 (designed binder)
chain: B1 chain with R54K, N55D, I56V, N57D, T80S, L81Y, S88P
B3: Anti-IL-23 Adnectin 1866C02 (designed binder)
chain: B1 chain with D27N, P29T, Y30W, R31Y, N55G, I56V, N57D, T80S, L81Y, S88P
B4: Anti-IL-23 Adnectin 1454B08 (designed binder)
chain: B1 chain with D25E, R54K, N55D, I56V, N57D, T80S, L81Y, I85M
notes: 10Fn3-based Adnectin expressed in E. coli followed by a HIS6 tag; Fn3 domain is positions 3-96 of the entry; also called Parent
B5: Anti-IL-23 Adnectin 1454C03 (designed binder)
chain: B1 chain with H26M, D27Y, R31S, R54K, N55E, I56Y, N57D, T80S, L81Y, I85M
notes: 10Fn3-based Adnectin expressed in E. coli followed by a HIS6 tag; Fn3 domain is positions 3-96 of the entry
B6: Anti-IL-23 Adnectin 1454H11 (designed binder)
chain: B1 chain with D25E, N55E, I56D, N57S, T80S, L81Y, I85M
notes: as for B5
B7: Anti-IL-23 Adnectin 1241A05 (designed binder)
chain: B1 chain with D25N, D27N, P29S, R31Y, N55G, I56V, N57A, T80S, L81Y, I85M
notes: 10Fn3-based Adnectin expressed in E. coli followed by a HIS6 tag; Fn3 domain is positions 3-96 of the entry; also called Clone 1241A05
B8: Anti-IL-23 Adnectin 1454D02 (designed binder)
chain: B1 chain with T80S, L81Y, I85M
notes: 10Fn3-based Adnectin expressed in E. coli followed by a HIS6 tag (captured by anti-His mAb in SPR)
B9: 1454B08 Y73→R (designed binder)
chain: B1 chain with D25E, R54K, N55D, I56V, N57D, Y75R, T80S, L81Y, I85M
notes: Point variant of 1454B08
B10: 1454B08 Y28→A (designed binder)
chain: B1 chain with D25E, Y30A, R54K, N55D, I56V, N57D, T80S, L81Y, I85M
notes: Point variant of 1454B08
B11: 1454B08 V75→Y (designed binder)
chain: B1 chain with D25E, R54K, N55D, I56V, N57D, V77Y, T80S, L81Y, I85M
notes: Point variant of 1454B08
B12: 1454B08 V45→Q (designed binder)
chain: B1 chain with D25E, V47Q, R54K, N55D, I56V, N57D, T80S, L81Y, I85M
notes: Point variant of 1454B08
B13: 1454B08 V45→E (designed binder)
chain: B1 chain with D25E, V47E, R54K, N55D, I56V, N57D, T80S, L81Y, I85M
notes: Point variant of 1454B08
B14: 1454B08 Y73→Q (designed binder)
chain: B1 chain with D25E, R54K, N55D, I56V, N57D, Y75Q, T80S, L81Y, I85M
notes: Point variant of 1454B08; also called Tyr 73→Gln
B15: 1454B08 Y81→A (designed binder)
chain: B1 chain with D25E, R54K, N55D, I56V, N57D, T80S, L81Y, Y83A, I85M
notes: Point variant of 1454B08
B16: 1454B08 P87→A (designed binder)
chain: B1 chain with D25E, R54K, N55D, I56V, N57D, T80S, L81Y, I85M, P89A
notes: Point variant of 1454B08
B17: 1454B08 Y73→N (designed binder)
chain: B1 chain with D25E, R54K, N55D, I56V, N57D, Y75N, T80S, L81Y, I85M
notes: Point variant of 1454B08
B18: 1454B08 V45→D (designed binder)
chain: B1 chain with D25E, V47D, R54K, N55D, I56V, N57D, T80S, L81Y, I85M
notes: Point variant of 1454B08
B19: 1454B08 V75→Q (designed binder)
chain: B1 chain with D25E, R54K, N55D, I56V, N57D, V77Q, T80S, L81Y, I85M
notes: Point variant of 1454B08
B20: 1454B08 V75→K (designed binder)
chain: B1 chain with D25E, R54K, N55D, I56V, N57D, V77K, T80S, L81Y, I85M
notes: Point variant of 1454B08
B21: 1454B08 T35→D (designed binder)
chain: B1 chain with D25E, T37D, R54K, N55D, I56V, N57D, T80S, L81Y, I85M
notes: Point variant of 1454B08; also called Thr35→Asp
B22: 1454B08 T35→Q (designed binder)
chain: B1 chain with D25E, T37Q, R54K, N55D, I56V, N57D, T80S, L81Y, I85M
notes: Point variant of 1454B08
B23: 1454B08 Y73→A (designed binder)
chain: B1 chain with D25E, R54K, N55D, I56V, N57D, Y75A, T80S, L81Y, I85M
notes: Point variant of 1454B08
B24: 1454B08 V45→N (designed binder)
chain: B1 chain with D25E, V47N, R54K, N55D, I56V, N57D, T80S, L81Y, I85M
notes: Point variant of 1454B08
B25: 1454B08 T35→N (designed binder)
chain: B1 chain with D25E, T37N, R54K, N55D, I56V, N57D, T80S, L81Y, I85M
notes: Point variant of 1454B08
B26: 1454B08 T35→E (designed binder)
chain: B1 chain with D25E, T37E, R54K, N55D, I56V, N57D, T80S, L81Y, I85M
notes: Point variant of 1454B08
B27: Anti-IL-23 Adnectin 1454E09 (designed binder)
chain: B1 chain with D25M, R54M, N55E, I56E, N57D, T80S, L81Y, I85M
notes: as for B5
B28: Anti-IL-23 Adnectin 1454B05 (designed binder)
chain: B1 chain with D25Y, R54K, N55D, I56E, N57E, T80S, L81Y, I85M
notes: as for B5
B29: Anti-IL-23 Adnectin 1454F05 (designed binder)
chain: MGVSDVPRDLEVVAATPTSLLISWYMHYPYSRYYRITYGETGGNSPVQEFTVPKQHDTATISGLKPGVDYTITVYAVTSSYKYDMQYSPISINYRTEIDKPSQHHHHHH
notes: as for B5
B30: Anti-IL-23 Adnectin 1454F07 (designed binder)
chain: B29 chain with M26H, H27M, P29S, S31R, K54R, Q55D, H56V
notes: as for B5
B31: Anti-IL-23 Adnectin 1454F09 (designed binder)
chain: B1 chain with D27N, P29S, N55H, I56T, N57D, T80S, L81Y, I85M
notes: as for B5

target: T1, Human IL-23 (human, UniProt Q9NPF7 20-189; P29460 23-328); experiment: cell-based or functional assay
T1 sequence (looked up) 1: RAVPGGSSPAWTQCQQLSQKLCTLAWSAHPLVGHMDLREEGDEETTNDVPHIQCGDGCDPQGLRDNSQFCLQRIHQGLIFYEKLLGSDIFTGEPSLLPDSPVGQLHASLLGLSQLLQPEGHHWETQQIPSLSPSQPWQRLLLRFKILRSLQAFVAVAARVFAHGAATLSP
T1 sequence (looked up) 2: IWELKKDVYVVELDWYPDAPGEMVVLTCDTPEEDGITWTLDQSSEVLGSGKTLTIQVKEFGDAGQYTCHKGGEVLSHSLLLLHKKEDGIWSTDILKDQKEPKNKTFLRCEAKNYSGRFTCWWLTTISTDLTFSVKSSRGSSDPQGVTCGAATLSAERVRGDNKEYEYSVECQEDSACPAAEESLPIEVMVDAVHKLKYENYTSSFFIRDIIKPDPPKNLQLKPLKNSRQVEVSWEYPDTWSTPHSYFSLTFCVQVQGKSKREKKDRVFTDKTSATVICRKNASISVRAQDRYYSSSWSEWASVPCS

Molecule | pSTAT3 IC50 (nM)
anti-p19 polyclonal antibody (AF1716) | 36.5
B1 | 0.06
B2 | 0.03
B3 | 0.03
B4 | 0.3
B5 | 0.44
B6 | 0.45
B7 | 30.7
B8 | 0.48

target: T1, Human IL-23; experiment: competitive ELISA, ratio of IC50 against parent 1454B08
Experimental: (§1) Adnectin variants were tested by ELISA for their ability to bind IL-23 in a manner that was competitive with the binding site of the native IL-23 receptor (IL-23R). Recombinant human IL-23R-Fc (R&D Systems, Minneapolis, Minn.) was coated overnight at 4° C. on a NUNC® Maxisorp plate (Thermo Fisher Scientific, Denmark) with 50 μL at 4 μg/mL in PBS. All washing was performed with PBST (PBS with 0.05% (w/v) Tween) using an automated plate washer (Biotek, Vt.). OptEIA buffer (BD Bioscience, CA) was used as block and assay diluent. Adnectin dilutions ranging from 200 nM to 28 pM were pre-incubated with 1 nM IL-23 for an hour before transferring to blocked IL-23R-Fc coated plates for 30 minutes. Bound IL-23 was detected via anti-IL-23 (GeneTex, CA) and anti-mouse-HRP (R&D Systems, MN) followed by TMB (3,3′,5,5′-tetramethylbenzidine) (BD Bioscience, CA) addition. Typical development time was 10 minutes. […] IC50s were generated from the average of four runs with an in-house curve fitting application.

Molecule | Activity (parent/mutant)
B4 | 1
B9 | 0.8
B10 | 0.08
B11 | 0.4
B12 | 2.9
B13 | 1.9
B14 | 3.8
B15 | 0.03
B16 | 0.1
B17 | 0.8
B18 | 1.2
B19 | 0.4
B20 | 0.2
B21 | 0.02
B22 | 1
B23 | 1.5
B24 | 1.8
B25 | 0.6
B26 | 1.7

target: T1, Human IL-23; experiment: competitive ELISA: Adnectin pre-incubated with 1 nM IL-23, binding to coated IL-23R-Fc
Experimental: as §1

Molecule | IC50 [nM]
B4 | 1
B9 | 1.2
B10 | 13
B11 | 2.2
B12 | 0.34
B13 | 0.51
B14 | 0.26
B15 | 35
B16 | 8.3
B17 | 1.2
B18 | 0.83
B19 | 2.3
B20 | 5.7
B21 | 49
B22 | 1
B23 | 0.65
B24 | 0.54
B25 | 1.7
B26 | 0.6

target: T1, Human IL-23; experiment: SPR (Biacore T100), Adnectin captured by anti-His mAb, IL-23 injected, 25 C
Experimental: The anti-His antibody, mAb050 (RnD Systems, MN) was diluted to 20 μg/mL in acetate, pH 5.0 and immobilized to ˜9000 RU on flow cells 1 and 2 of a CM5 chip surface (GE Healthcare, Piscataway, N.J.) according to the manufacturer's instructions. All surface plasmon experiments were conducted in HBS-EP (10 mM Hepes 150 mM NaCl 3 mM EDTA 0.05% Surfactant P20) at 25° C. IL-23 was injected over anti-His mAb captured Adnectins for 2 minutes followed by a 10 minute dissociation phase. Kinetic parameters were calculated using the T100. Biaevaluation.

Molecule | Kd [nM] | koff [s⁻¹] | kon [M⁻¹ s⁻¹]
B4 | 3.72 | 0.000409 | 110000
B27 | 10.1 | 0.000569 | 56600
B5 | 3.91 | 0.000468 | 120000
B28 | 2.27 | 0.000677 | 298000
B6 | 2.8 | 0.000227 | 81000
B29 | 4.75 | 0.000525 | 111000
B30 | 9.43 | 0.000447 | 47400
B31 | 7.45 | 0.000928 | 125000
B7 | 32.6 | 0.000236 | 7280
B8 | 9.57 | 0.000438 | 45700
